Results taken from the supplement of paper PMC9112550, “Optimization of the antimicrobial peptide Bac7 by deep mutational scanning” (BMC Biology, 2022).

Tested on: Escherichia coli TOP10
Test: shrunken log2 fold change of peptide-encoding DNA abundance (4.5 h post-induction vs induction); higher = less antimicrobial activity (less host growth inhibition)
Conditions: time post-induction: 4.5 h; library: site-saturation at positions 5, 18, 19, 20
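Further: peptides expressed intracellularly from a pBAD plasmid library in pooled LB shake-flask culture, induced with 0.3% L-arabinose, DNA abundance read by NGS, three biological replicates, DESeq2 with apeglm shrinkage.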

Sequence | shrunken log2 fold change
RRIRYRPPRLPRPRPRPPQNPRP | 0.191
RRIRWRPPRLPRPRPRPTFMPRP | -0.172
RRIRKRPPRLPRPRPRPVEIPRP | 0.0372
RRIRHRPPRLPRPRPRPCGKPRP | -0.00804
RRIRKRPPRLPRPRPRPVTVPRP | -0.0834
RRIRKRPPRLPRPRPRPHNMPRP | -0.438
RRIRYRPPRLPRPRPRPKSNPRP | -0.206
RRIRERPPRLPRPRPRPCCCPRP | 0.15
RRIRPRPPRLPRPRPRPGQDPRP | -0.0902
RRIRYRPPRLPRPRPRPMHLPRP | -0.00136
RRIRRRPPRLPRPRPRPQFKPRP | -0.145
RRIRKRPPRLPRPRPRPGEGPRP | 0.0997
RRIRWRPPRLPRPRPRPYLTPRP | -0.089
RRIRARPPRLPRPRPRPGGCPRP | 0.81
RRIRTRPPRLPRPRPRPICYPRP | -0.387
RRIRSRPPRLPRPRPRPWSAPRP | -0.027
RRIRIRPPRLPRPRPRPWNSPRP | -0.592
RRIRWRPPRLPRPRPRPRCIPRP | -0.036
RRIRMRPPRLPRPRPRPLVTPRP | -0.107
RRIRRRPPRLPRPRPRPFQFPRP | -0.0742
RRIRFRPPRLPRPRPRPQQTPRP | -0.0409
RRIRQRPPRLPRPRPRPMRDPRP | 0.0311
RRIRSRPPRLPRPRPRPPCVPRP | 0.00342

Sequence | shrunken log2 fold change
RRIRMRPPRLPRPRPRPATLPRP | 0.132
RRIRYRPPRLPRPRPRPEMIPRP | 0.0135
RRIRKRPPRLPRPRPRPDVDPRP | 1.8
RRIRKRPPRLPRPRPRPQFQPRP | -0.0733
RRIRVRPPRLPRPRPRPEHIPRP | -0.0362
RRIRARPPRLPRPRPRPIDDPRP | 0.178
RRIRNRPPRLPRPRPRPFHMPRP | -0.458
RRIRARPPRLPRPRPRPKCRPRP | 0.237
RRIRTRPPRLPRPRPRPSPGPRP | 0.103
RRIRIRPPRLPRPRPRPFFVPRP | -0.294
RRIRARPPRLPRPRPRPSQEPRP | 0.0769
RRIRDRPPRLPRPRPRPKSRPRP | 0.0765
RRIRERPPRLPRPRPRPFRQPRP | 0.198
RRIRYRPPRLPRPRPRPWWLPRP | -0.0627
RRIRPRPPRLPRPRPRPQWTPRP | -0.0535
RRIRGRPPRLPRPRPRPVDVPRP | 0.447
RRIRSRPPRLPRPRPRPQLNPRP | -0.248
RRIRQRPPRLPRPRPRPTWYPRP | -0.174
RRIRNRPPRLPRPRPRPGMGPRP | 0.307
RRIRHRPPRLPRPRPRPLGTPRP | -0.129
RRIRIRPPRLPRPRPRPVCCPRP | -0.0749
RRIRDRPPRLPRPRPRPATFPRP | 0.222
RRIRCRPPRLPRPRPRPYDFPRP | -0.894

Sequence | shrunken log2 fold change
RRIRERPPRLPRPRPRPMWTPRP | -0.306
RRIRSRPPRLPRPRPRPRGHPRP | -0.0222
RRIRGRPPRLPRPRPRPCNRPRP | 0.212
RRIRERPPRLPRPRPRPTWAPRP | 0.115
RRIRGRPPRLPRPRPRPAYRPRP | 0.181
RRIRHRPPRLPRPRPRPTHNPRP | -0.211
RRIRARPPRLPRPRPRPGRCPRP | 0.745
RRIRCRPPRLPRPRPRPVHTPRP | 0.101
RRIRWRPPRLPRPRPRPDNNPRP | -0.0431
RRIRKRPPRLPRPRPRPECAPRP | 0.339
RRIRVRPPRLPRPRPRPAMHPRP | 0.0999
RRIRVRPPRLPRPRPRPEDRPRP | 0.0837
RRIRGRPPRLPRPRPRPNACPRP | 0.212
RRIRERPPRLPRPRPRPCCMPRP | -0.831
RRIRFRPPRLPRPRPRPKHEPRP | 0.286
RRIRNRPPRLPRPRPRPFFFPRP | 0.0988
RRIRDRPPRLPRPRPRPTYQPRP | -0.0238
RRIRMRPPRLPRPRPRPNRQPRP | 0.108
RRIRLRPPRLPRPRPRPTPIPRP | 0.3
RRIRMRPPRLPRPRPRPYQDPRP | 0.0259
RRIRCRPPRLPRPRPRPCYIPRP | -0.0945
RRIRQRPPRLPRPRPRPRICPRP | -0.083
RRIRDRPPRLPRPRPRPPTVPRP | 0.381

Sequence | shrunken log2 fold change
RRIRSRPPRLPRPRPRPTPAPRP | 0.299
RRIRPRPPRLPRPRPRPISMPRP | -0.0272
RRIRHRPPRLPRPRPRPWDLPRP | -0.245
RRIRMRPPRLPRPRPRPMFHPRP | -0.244
RRIRHRPPRLPRPRPRPADYPRP | -0.291
RRIRVRPPRLPRPRPRPYKPPRP | -0.757
RRIRLRPPRLPRPRPRPYPMPRP | 0.00832
RRIRYRPPRLPRPRPRPRKVPRP | -0.208
RRIRPRPPRLPRPRPRPQMQPRP | -0.254
RRIRARPPRLPRPRPRPVMGPRP | 0.177
RRIRERPPRLPRPRPRPCQTPRP | -0.397
RRIRYRPPRLPRPRPRPHTKPRP | -0.149
RRIRRRPPRLPRPRPRPKGFPRP | -0.12
RRIRNRPPRLPRPRPRPYPRPRP | 0.0154
RRIRGRPPRLPRPRPRPSDQPRP | 0.796
RRIRDRPPRLPRPRPRPCFPPRP | -0.0323
RRIRLRPPRLPRPRPRPCCVPRP | 0.0472
RRIRMRPPRLPRPRPRPYMTPRP | -0.178
RRIRRRPPRLPRPRPRPMCYPRP | -0.069
RRIRDRPPRLPRPRPRPNIRPRP | -0.0481
RRIRERPPRLPRPRPRPSHTPRP | -0.248
RRIRNRPPRLPRPRPRPTTDPRP | -0.199
